Measurements published in PMC5291249.
Values joined by “and” are separate entries in the source; they are usually repeats but may differ in a detail not shown here. Equal entries are not always repeated. Where two headings read alike, the source gives them in different places.

Columns and labels:
Experiment in all cases: cross-linking; glutaraldehyde cross-linking (0.01-0.5%, 0.025% chosen as optimal) of recombinant p53 in solution without DNA, 25°C, Tris or HEPES buffer pH 7.5, 100 mM NaCl, then 4-12% MOPS SDS-PAGE (coomassie, silver stain or immunoblot)
[1] = target: murine p53 mutant with the double substitution M340Q/L344R (murine) (UniProt P02340)
[2] = target: recombinant murine p53 (murine) (UniProt P02340)
[3] = target: recombinant murine p53 (murine) (UniProt P02340); remark: listed apart in the source

Row | stoichiometry N [1] | stoichiometry N [2] | stoichiometry N [3] | Substance
1 | 2 and 4 |  |  | murine p53 mutant with the double substitution M340Q/L344R (from UniProt P02340 1-390) (natural protein)
2 |  | 4 | 8 | recombinant murine p53 (from UniProt P02340 1-390) (natural protein)
